From the DeepSol protein solubility set

Assay: soluble on expression in E. coli; label from the status in PepcDB or PDB records
For “MAHHHHHHMEYAQKSARLPRSAEEKEQWKRVIVILEHCPLQTIQTDRGFELLSDRHRSYHARHNQDPADWRPDVVHQCLLHLQDSPLNRAGMLEVFLRTKKQVCIAVDPRLRVPRNVRLFEKMMVSLLFKLKVRASTGYLSLLRVVGNPITDHIPAGTRLYRVEKDGDLIDPFTFCASCGYAADVLDAQRTDRKISLARRRLTSSTSGTLEETTAEAGTEEFAKAQRKAAERRQFQPFAFIIGGMSRGDVSVDYARPGEVSSIRLGDRGMSAAAVISTLLHGFEEEWLREDNEAC”, the “soluble on expression in E. coli” value was “soluble”.
In the case of “MAHHHHHHMFPQGLIDQWLSKSREGRRSVREDRKATPAILDNIARLEEYCRSHPYDVFCASTLQHPPFALHALESEAAEQQRLAQPPPVFAATVPSPSAHTTASNEVRGGVCGRYADGDESRASVTAARQHLHNVAARLAAYLQSSGAVRSSASRHEEESQCTVVADFFVHLLSEAAVAAVYRQGIAAQVEAEERAAFQHRQSQRRLQLRVDSKHDGTLQRLELSDSKGADTEAVHEVEGLTVVRPIADYRRLSQGLASLWSLLAQTQRRGGLAVGGPSKERSRDSTADTDSVNDNDNLWTRVRVDCLRHWLGDRALPPPPPLPGTAALGETQRKTEASSPAMPGGAWWSRPLYISERDVEFALRKVLADVTASAAS”, the “soluble on expression in E. coli” value is reported as “soluble”.
In the case of “MAHHHHHHMGGPPRKREREGEALKPKSKEEQLPIKNECTLDRREGKQIVAEKWSEVVVDDNESQERSNESVSESQVYDTEEELLAAGEDLSGDALKDFLRKNFVDFIDEKVARVGDLDLMN”, the “soluble on expression in E. coli” value is reported as “not soluble”.
With “MAHHHHHHMGKLCWLQISIGGKPAKEKILLELFDDITPKTCANFRALCTGNEGKVTDETQIPMTYKGSTFHRIIAGFMIQGGDFTKHNGTGGVSIYGERFDDENFDVPCDKAGLLAMANAGPNTNGSQFFITVNPAQHLTGRHVVFGKVVRGMNTVRALEHTETGANDKPVKPCVIVDCGVTDTLPEPEPQVGGDTFPDYPEDCTPSLTDAELLDVGEEIRQIGNKLFKASDFENAIQKYEKAARFVKTINKTTANDVAVNEKLIACYNNTAACAIKLGQWSEARNAASRVLELDNSNAKALFRRGFASLSAGDSESAVADFTKAQKLDPDNTEIVTVLQQAKEAEKVRTAKLAAGLKKMFS” the “soluble on expression in E. coli” value was “not soluble”.
For “MAHHHHHHMGTLEAQTQGPGSMSSSIEIFPDSDILVAAAGKRLVGAIGAAVAARGQALIVLTGGGNGIALLRYLSAQAQQIEWSKVHLFWGDERYVPEDDDERNLKQARRALLNHVDIPSNQVHPMAASDGDFGGDLDAAALAYEQVLAASAAPGDPAPNFDVHLLGMGPEGHINSLFPHSPAVLESTRMVVAVDDSPKPPPRRITLTLPAIQRSREVWLLVSGPGKADAVAAAIGGADPVSVPAAGAVGRQNTLWLLDRDAAAKLPS”, the “soluble on expression in E. coli” value was “soluble”.
With “MAHHHHHHMHLIYLKILFFSLLLDTFISSHTNIPRINNVTPKNVAINISPVVPIPDVITLDYIKENLEQIRLIKDIIIKGKLKKLKVLKQKCKKNKKDKEIKNEIENLEREIMDTRKLCNNYIKNEIKEIKSLKDQIVKDKIEKDRWKKDLLIDYELKRLMYKPDIERLKQLNEEYKKEELRVAKLKDNMFKIYQFILYLIPNTIYYTIEFINNIPEVELSLPKFLKKKKKKKVNHFSHYGVPYMK” the “soluble on expression in E. coli” value was “soluble”.
In the case of “MAHHHHHHMHNVYNIFRQGQKRTYMTTALDRKIREVPYLSRYVILEKLKKKPRYMSECVGTPRRAYDYNTFDKIRYKPTFNPYVHLNKDKKYRLDNWKSRDHENFDPLKCYVRGSRKSYDIPYAILPTKDELGMFHPPILSGRYKADIEKQYYMHDLPWVWHKNFYTGTSHFCDNMVIGKKKWYRKEQQNEKMKESMKKINNLVLEYREECKNKKRYNFLEKVVNTLGDEIAHKYIRKIKNIYL”, the “soluble on expression in E. coli” value is reported as “not soluble”.
In the case of “MAHHHHHHMHPPSSGQGLFPRYGGGWMHQFGHVYALQQELLDPNANNWFRAVELWHTARQEGVAMNVSHFTSILRQCVQPGAWAQSLQVLKQMKRENVRPDVVGVGCALAACVEGKHYDEVENIFATFHKTMLLDSVCHLALIRARQESGNAKGAIAAGKQQQADQVPFLPYTYTHLLEACNAEDDAAYAMELVRNMHSEQWVPSQCAMLAIEDLGRRHERLAAFSRPLLSASDKADSALPSFDASRRLLPPEW”, the “soluble on expression in E. coli” value is reported as “not soluble”.
With “MAHHHHHHMILKEFCAEGYERIPEAIAAGAQRVELCARLDVGGVTPSADTIQNTVEYCHSRNAMVMVIIRCREGNFYYSDEEFQVMLKSVILARRLGADGVVFGAIDTLGNVDPRISILLSAAKGMSLTFHMAFDEIPTEKQFQAIDALTAYGFHRILTHGGSASTNIEENLDWLKELVLYAKNRISIMPGGGVTNLNAEKIARDLGVTEVHGTRVVRFV” the “soluble on expression in E. coli” value was “not soluble”.
In the case of “MAHHHHHHMKIRTVLRKRIRLHGTNCPGFTCHHNRFSRLLKTWVVVLPPKQLAVYKNGVQLLLQLVTEHLTGDGDVLLQLRYQHMIAKEMLSGRHNTASFRVTYGFLTFDGVNPKVCAMNLLCGNPLIVKHSACLQCTHPSFVRVLNFCVTLKKRRTIVSKPQGRPTKKQLKVAPQHR”, the “soluble on expression in E. coli” value is reported as “not soluble”.
In the case of “MAHHHHHHMKNNEEWEKEKIYDRQLRLWGVKAQNRMMKSNVLILGLSGINIEICKNLILNGINITIIDDNIVDEEMVENIFFLNESDIQNYACVAIFKELKSINKMINMKAYIGRMDTSNDSIIIESELVQNADGEISNTKMGKTFSVEKYISNYTSVCVSCEDYPLYKLVKMNEFCHEKNIGFFAAMCNGKFAFLFSDFGNHVIEESYYKAKEGQRKGETGANKAGELQKEGETGANNGGIPIQYCTLSHFLKVPFENFDKKTNKIIFPMFALILFELNKQLNKSDKSIDEQEFSTFCDQFSLAKCKESLGEITKTYRVAFSPSCSIMGGVTSQEIRKFVSKQHESIPNFCVFDMNQSVVCTSMIS”, the “soluble on expression in E. coli” value is reported as “not soluble”.
With “MAHHHHHHMKWKWYNTKNICTLTNVFLSKHPYKPKTREIIHPHMTPPEYLAPSDCFQAKTGELQQYIPNNYYRVKWIESLRSGEYLGEDYPWNLLPNWKYWRKRKYNVKYEEIPWFISKVKGVSYYKRLNVWMVQWVENGVHRIRRFRCAFGLLQAKLAAEQFRKKLEEAGRVDNRKTERQIRMDYIQKKDERLLRKKKYSKISKGQF” the “soluble on expression in E. coli” value was “not soluble”.
With “MAHHHHHHMKYRYDEKIHKGLYSEDNSTSMNNRYNNNESTYKMPKEILNRHEKIDLNSLPIDEEIINNLKIILNIEKLYMYQYIIYNEILKNSKHLLIYNKTGTGKTLSYLLPLIQKLINDKFDCNKKVLIITQNIYLCKQLYIYILSIYPTLNVCILSDEKESYNMNNNINNDIIVNIKRNNINPNDKENNDMCDEKYGIHFYLCTPNKLEYFIKNYKNKSRNDKNVMNNILNNINTIVIDEFDYIVEYRKNILNFFFKKDLFNEIHNNNNIRDKNRFNHDIFNKSNYNIYLFTANINEVIKKKIYEHLNGFVFFDFINGIKEHIQKQVAEQHNFNIDVLKNSENVVQLLNKENKNESLCNLNITHFVCKINSASKYKYVCYFLEEFFFHKQKISQKVYNDMVYDEYDKLNYRNMIPMEENKFVNNSEKEGNMKRSNADKINKCIIFANTKEEVEKLYEISLLKPHAVMMHSELLTIQKNENINLFKVGKKNVLITTDIISRGLDIDNVIFILNYSPPTSPNDYIHRSGRTGRGKEKGICLTMYHKYEYRNVDKIMKYTKNKFEVILCPKVEDVYKFSVDKLVENVMKIAPEKYEFFNEKSKELLKKHNTKIIAQILSILLKFDKKSFDVSLLSGKKNYVAVLIKDPFFEVIKNRDDIINIIKVITGNKIITTIIGDVAKCDEGFIVDISSSHVNKIISLFNSSNFEYKSKGLEINTLIELPPIIKEKKNIIRRKKKAPWIT” the “soluble on expression in E. coli” value was “not soluble”.
In the case of “MAHHHHHHMLDFLDTINKYTLRSGSVTHIGGKISKKCAAQLVGSLVLQGRLNHYCAALAAQFMVSSEVLVVASRDAVQGISCEGCTLERQNLSSVPDTGEIFGVATTGNNVVVGYSAGVAMFSCKLELEKIYTLSEYTNSILGIAVTPDGSCLATGGANAIVTVWSRDMNPVHYLAGHTDWVRFVKFTIMDGRGLELFSTGDDGLVLHWDPLVGTLLSRIDFFHGQDIHAFEVSWRTGLIGIARDTPTICLYKPQISGIASNHAVGAVRLEQIGRIDDAHHSVLTALRFSNDSQWIVSAGEDETLSVSSVCQLKRVFVCETFIVRRHCMTFMNTFTSVCVLASPPESSAIIVVACATDGTVVQWVVNPETFKCTYTKKLQLL”, the “soluble on expression in E. coli” value is reported as “not soluble”.
In the case of “MAHHHHHHMLEDPNFSDFTGLHKSVTALTAANSDLARYGNELHKMILRYQLEVLSGTCNYVEVLSLAAYNGNLTAAEYVNNIEPVILGDDSVSVDIDTRTNTLSFRDSSKAKMLSYFNKIVANVDTVPASSLATTSGRYSDFTHVAASSSKREVMPLAADLDAARARSTSIYALQKACMNSKAERIEEAKKSEDKKRERAVAERREQEEAKKEETQKAYIRKLYAEYNERQRQERGKEVLRKLRIKYPGFKVDESIVYRSAAGFEDELTRLLAAFKRRGVDNDRKEILQANLYERALRALEIPKRKDYEAQNAERTRAERAAARENYLAEHRREYDRRQNEKAVLSKFLHDADEFERTWRKRANIDKPSKRDEQQRLLEEEMRRLGGE”, the “soluble on expression in E. coli” value is reported as “not soluble”.
In the case of “MAHHHHHHMLKELNLNTTFLRQDYRTPLKQLSVDPIFCRRRGGRAILHFEMNQVQGTVAVTLTGCVAQACVPHACGAGWGNMKVEQLRSFFLSFVVVADAAQPSYFLWGEVSVHEMNGTAGNHLAIDGQSLRTCTTASVIPPLSEIPPEVFIVKAKKFRCQMHEKGFGDSTTCP”, the “soluble on expression in E. coli” value is reported as “not soluble”.
For “MAHHHHHHMLKHKYNDSCVQELFYKNNIKLIAIDIDGTLADDTGKISDENLKAIEVCKKGGIEIILASGRLHSYAMKMFTNEQIEKYKIEKLDGVYSHGAYIHMKGYDYVYRKFSYKDLELILFSLGSYNILRNAVFLTVDSAYVINDDIKLIEEYIYTPESEGIISDIEYVKIIDTNYKPILINKIKDIFNIGDIVSIEIYDKLYPNQDIYSDLFKVLFYELQPHYKIYIPSSNNKIVLSPINTAKVHTTQLYAQFYRINLNNILSIGNDDNDIELLSSTGFSVAVKNSTPRALQVARCVSTKTNNENAVANIIYRVLSGRRS”, the “soluble on expression in E. coli” value was “not soluble”.
In the case of “MAHHHHHHMLKLQLDATAIEDELKLSANSKSANTVSSKTPRPDKFAAYHTLRLLFVPIWKRYRFHKQMVWATAIVAKHVLLKVHWRRQRRSERATDTFLHVLRIPRTKLRCAAHLLEGQVVRIQRAFRRHRARVQAVVELNYRKVRRDVEEAYWEAVVTQHEAELAVQQRPFSPVPKAVREVFGARAEARARFGSIQRRTSLLSSAGNSSYDTAVPSNELDVYNFHMIGRLPGSLLRFEMTSAVFAQLRRSAARAHLMDDFSETRARRAGMGGFMEHGDIAPTNTAFVRSRGKCRAQLPCFLPESVYAAILNNTCYLTSLMRDDRKLRAHLRQREHHLESY”, the “soluble on expression in E. coli” value is reported as “not soluble”.
For “MAHHHHHHMLLAMCRYDCVGGCRERVCGGGGGGRGKGGEKKYRTEMGRASKDKRDIYYRKAKEEGYRARSAYKLLQLHEEFNILNRDEIQTGVVVLCAAPGSWSQLLARHLREEVGGRTEKQSLGAPRIVAVDLQEMMPIEGVQLLQGDITSEATAREIIRLLNIKEDTASVNDAYVDSEEDKSAIQTDKGGRSTARRPSLAPGGRNSYSDHTNSCEKKADLVVCDGAPDVTGMHELDEYLQHHLLLAALNITTFVLRCGGTFVTKIFRGPNTPFLVAKSEVFFRHVIIAKPRSSRNASMEAFMVCQDYQPPAGYRPSFDRPLTTTTRCFTPVAPLPPAFMHLQSEGRQITQKEKKGVEDQACMMESVIVPFLACGDLSGYDADMCYDRDSDVPVLPPVHPPRQAPYMTTACKNDEDSVVATNGAEDIMKRRRVE”, the “soluble on expression in E. coli” value was “not soluble”.
